Test results published in patent US20090062512A1, “Comparative ligand mapping from MHC class I positive cells” (priority 2000, published 2009).
Like-named read-outs stand apart in the source and are kept apart here.

Tests used:
Format in all cases: cell-based
[1] = target: B*0702 class I MHC molecules in cells infected with the PR8 strain of influenza A virus (Homo sapiens, UniProt P01889)
[2] = target: sHLA-A*0201 from MCF-7, MDA-MB-231, BT-20 and MCF10A (Homo sapiens, UniProt P04439, D140Y/D185E/D98H/E176V/E277Q/G131W/G231S/I119V/I121R/I166T/I218V/L300P/L318F/N151K/N90K/P208A/P217A/Q86G/Q94H/R138H/R169H/T345S); assay: MS comparative analysis of sHLA-A*0201 peptides, breast cancer cell lines vs nontumorigenic MCF10A; conditions: for FOLD INCREASE BT-20 over MCF10A / FOLD INCREASE MCF-7 over MCF10A / FOLD INCREASE MDA-MB-231 over MCF10A: peptide epitope presented on sHLA-A*0201; for FOLD INCREASE BT-20 over MCF10A: BT-20 vs nontumorigenic MCF10A; for FOLD INCREASE MCF-7 over MCF10A: MCF-7 vs nontumorigenic MCF10A; for FOLD INCREASE MDA-MB-231 over MCF10A: MDA-MB-231 vs nontumorigenic MCF10A; for presentation by HLA A*0201 of tumorigenic vs nontumorigenic cell lines: MCF-7, MDA-MB-231, BT-20 vs MCF10A
[3] = target: A*0201 class I MHC molecules in cells infected with the West Nile virus (Homo sapiens, UniProt P04439, D140Y/D185E/D98H/E176V/E277Q/G131W/G231S/I119V/I121R/I166T/I218V/L300P/L318F/N151K/N90K/P208A/P217A/Q86G/Q94H/R138H/R169H/T345S)
[4] = target: A*0201 class I MHC molecules in cells infected with the PR8 strain of influenza A virus (Homo sapiens, UniProt P04439, D140Y/D185E/D98H/E176V/E277Q/G131W/G231S/I119V/I121R/I166T/I218V/L300P/L318F/N151K/N90K/P208A/P217A/Q86G/Q94H/R138H/R169H/T345S)

Substance | Fold Increase [1] | other results
APNRPPAAL | 1.5 | –
APPPPPKAL | 2.29 | –
APRGTGIVSA | 2.2 | –
APRPPPKM | 2.9 | –
APRPVAVAV | 1.5 | –
AQYEHDLEVA | – | FOLD INCREASE BT-20 over MCF10A [2]: 8; FOLD INCREASE MCF-7 over MCF10A [2]: 34; FOLD INCREASE MDA-MB-231 over MCF10A [2]: 2
ARPATSL | 2.2 | –
ATWAENIQV | – | Fold Increase [3]: Unique
DPMKARVVL | 1.87 | –
EPRPPHGEL | 2.7 | –
FLKEPALNEA | – | Fold Increase [3]: Unique
GLIEKNIEL (listed as Homo sapiens) | – | presentation by HLA A*0201 of tumorigenic vs nontumorigenic cell lines [2]: shared by all 4 cell lines; Fold Increase [4]: 1.58
GPLDIEWLI (listed as Homo sapiens) | – | Fold Increase ([1]; PR8B0702: presentation by sHLA B*0702, influenza PR8 infected vs uninfected cells): 2.2
GPPGTGKTAL | 1.5 | –
GPREAFRQL | 6.03 | –
GPRSSLRVL | 3.16 | –
GPYPYTL | 2.01 | –
HLNEKRRF | 2.02 | –
IPSIQSRGL | 1.6 | –
ITAPPSRVL | 1.98 | –
KILDLETQL | – | FOLD INCREASE BT-20 over MCF10A [2]: 7; FOLD INCREASE MCF-7 over MCF10A [2]: 9; FOLD INCREASE MDA-MB-231 over MCF10A [2]: 1.4
KIVVVTAGV | – | Fold Increase [3]: Unique
KPQDYKKR | 2.9 | –

Substance | Fold Increase [1] | other results
LDQSVTHL | – | Fold Increase [3]: Unique
LLDVPTAA | – | Fold Increase [3]: Unique
LLPGENINLL | 7.13 | –
LLQEVEHQL (listed as Homo sapiens) | – | presentation by HLA A*0201 of tumorigenic vs nontumorigenic cell lines [2]: found only in the MCF-7 peptide pool
LPKPPGRGV | 1.9 | –
LPRGSSPSVL | 1.57 | –
LPSSGRSSL | 2 | –
LVFQPVAEL | 4.33 | –
NLGSPRPL | 5.6 | –
NLMHISYE | – | Fold Increase [3]: Unique
NLPLSNLAI | 4.3 | –
NPASKVIAL | 1.64 | –
PKFEVIEKPQA | 3.6 | –
RIVPRFSEL | 1.54 | –
RLDDDGNFQL | – | Fold Increase [3]: Unique
RPAGKGSITI | 1.8 | –
RPGLKNNL | 1.5 | –
RPKANSA | 1.8 | –
RPPPIGAEV | 2.9 | –
RPQGGQDIL | 2.24 | –
RPSGKGIVEF | 13.7 | –
RPTGGVGAV | 2.7 | –
RVEPLRNEL | 1.95 | –

Substance | Fold Increase [1] | other results
SLFGGSVKL | – | FOLD INCREASE BT-20 over MCF10A [2]: 1.3; FOLD INCREASE MCF-7 over MCF10A [2]: 5; FOLD INCREASE MDA-MB-231 over MCF10A [2]: 2.6
SLFGQRIEN | – | Fold Increase [3]: Unique
SLFPGKLEV | – | FOLD INCREASE BT-20 over MCF10A [2]: 2; FOLD INCREASE MCF-7 over MCF10A [2]: 5; FOLD INCREASE MDA-MB-231 over MCF10A [2]: 2.2
SLLEKSLGL (listed as Homo sapiens) | – | FOLD INCREASE BT-20 over MCF10A [2]: None; FOLD INCREASE MCF-7 over MCF10A [2]: 7.9; FOLD INCREASE MDA-MB-231 over MCF10A [2]: 7.4; Fold Increase [4]: 1.64
SPAKIHVF | 2.8 | –
SPGIPNPGAPL | 1.84 | –
SPGPPTRKL | 1.9 | –
SPKIRRL | 1.63 | –
SPPSKPTVL | 1.9 | –
SPQEDKEVI | 4.19 | –
SPRSGLIRV | 1.53 | –
SPVPSRPL | 2.91 | –
SVGGVFTSV | – | Fold Increase [3]: Unique
TLYEAVREV | – | FOLD INCREASE BT-20 over MCF10A [2]: 7.9; FOLD INCREASE MCF-7 over MCF10A [2]: None; FOLD INCREASE MDA-MB-231 over MCF10A [2]: 2.3
TPEQIFQN | 1.51 | –
TQFVRFDSD | 1.64 | –
VFLKPWI | 1.62 | –
VLDELKVA | – | Fold Increase [3]: Unique
YPFKPPKVAF | 3.27 | –
YPKRPLLGL | 1.61 | –
YQFTGIKKY | 2.3 | –
YTMDGEYRL | – | Fold Increase [3]: Unique
